Data reported in patent US9327008B2, “Cell-permeant peptide-based inhibitor of kinases” (Purdue Research Foundation, priority 2008, dated 2016).

Columns and labels:
Type in all cases: biochemical
Src (residues 1-530) = biological target: T1, Src (residues 1-530) (Homo sapiens, UniProt P12931); assay: Millipore radiometric kinase activity assay, SRC (1-530) (h)
T1 construct: SRC (1-530) (h) (5-10 mU) is incubated; purchased Millipore (radiometric assay service)
Description: (§1) A commercial radiometric assay service (Millipore, Billerica, Mass.) was used to test the specificity and potency of peptides containing a coupled transduction domain and therapeutic domain, hereinafter “complete peptides”). In these assays, if the kinase is not inhibited by an inhibitor peptide, a positively charged substrate is phosphorylated with a radiolabeled phosphate group from an ATP.
(§2) In a final reaction volume of 25 μL, SRC (1-530) (h) (5-10 mU) is incubated with 8 mM MOPS pH 7.0, 0.2 mM EDTA, 500 mM […] [SEQ ID NO: 58], 10 mM MgAcetate and [γ-^33P-ATP] (specific activity approx. 500 cpm/pmol, concentration as required). The reaction is initiated by the addition of the MgATP mix. After incubation for 40 minutes at room temperature, the reaction is stopped by the addition of 5 μL of a 3% phosphoric acid solution. 10 μL of the reaction is then spotted onto a P30 filtermat and washed three times for 5 minutes in 75 mM phosphoric acid and once in methanol prior to drying and scintillation counting.
(§3) IC50 values for inhibitor peptides were determined using Millipore's IC50Profiler Express service. The IC50 value was estimated from a 10-point curve of one-half log dilutions. For peptides tested for specificity, the concentration of the peptides that inhibited approximately 95% of MK2 activity was chosen to profile against a battery of kinases related to MK2, cell viability, or human disease from MilliporeKinaseProfiler service. In both assays, compounds were supplied in dimethylsulfoxide (DMSO). Every kinase activity measurement was conducted in duplicate.
(§4) Therapeutic inhibitor peptides were assayed for activity against human kinases related to MK2, cell viability, or human disease. The assays were performed using concentrations of therapeutic inhibitor peptides that yielded 2% to 8% of normal MK2 activity. Error is reported as the standard deviation between 2 samples, and “c” is rat AMPK whereas all other kinases used are human kinases.

Lck = biological target: T2, Lck (Homo sapiens, UniProt P06239); assay: Millipore radiometric kinase activity assay, Lck (h)
T2 construct: purchased Millipore (assay service)
T2 sequence (P06239 whole entry): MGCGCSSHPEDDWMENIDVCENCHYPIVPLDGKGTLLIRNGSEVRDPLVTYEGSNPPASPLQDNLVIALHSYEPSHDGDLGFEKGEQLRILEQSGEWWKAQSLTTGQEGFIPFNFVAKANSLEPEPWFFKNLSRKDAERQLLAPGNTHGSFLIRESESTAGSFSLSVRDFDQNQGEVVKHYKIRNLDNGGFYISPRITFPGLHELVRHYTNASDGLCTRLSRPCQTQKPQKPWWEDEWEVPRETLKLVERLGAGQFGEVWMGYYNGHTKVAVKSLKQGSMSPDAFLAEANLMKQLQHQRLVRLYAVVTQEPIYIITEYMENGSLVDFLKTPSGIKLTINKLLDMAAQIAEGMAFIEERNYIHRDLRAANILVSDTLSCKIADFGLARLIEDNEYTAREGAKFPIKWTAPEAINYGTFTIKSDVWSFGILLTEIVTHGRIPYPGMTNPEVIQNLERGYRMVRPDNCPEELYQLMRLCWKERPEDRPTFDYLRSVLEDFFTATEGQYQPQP
Text: A commercial radiometric assay service (Millipore, Billerica, Mass.) was used to test the specificity and potency of peptides containing a coupled transduction domain and therapeutic domain, hereinafter “complete peptides”). In these assays, if the kinase is not inhibited by an inhibitor peptide, a positively charged substrate is phosphorylated with a radiolabeled phosphate group from an ATP. […] The reaction is initiated by the addition of the MgATP mix. […] IC50 values for inhibitor peptides were determined using Millipore's IC50Profiler Express service. The IC50 value was estimated from a 10-point curve of one-half log dilutions. […] In both assays, compounds were supplied in dimethylsulfoxide (DMSO). Every kinase activity measurement was conducted in duplicate. Therapeutic inhibitor peptides were assayed for activity against human kinases related to MK2, cell viability, or human disease. […] Error is reported as the standard deviation between 2 samples, and “c” is rat AMPK whereas all other kinases used are human kinases.

JAK3 = biological target: T3, JAK3 (Homo sapiens, UniProt P52333); assay: Millipore radiometric kinase activity assay, JAK3 (h)
T3 construct: purchased Millipore (assay service)
T3 sequence (P52333 1-1124): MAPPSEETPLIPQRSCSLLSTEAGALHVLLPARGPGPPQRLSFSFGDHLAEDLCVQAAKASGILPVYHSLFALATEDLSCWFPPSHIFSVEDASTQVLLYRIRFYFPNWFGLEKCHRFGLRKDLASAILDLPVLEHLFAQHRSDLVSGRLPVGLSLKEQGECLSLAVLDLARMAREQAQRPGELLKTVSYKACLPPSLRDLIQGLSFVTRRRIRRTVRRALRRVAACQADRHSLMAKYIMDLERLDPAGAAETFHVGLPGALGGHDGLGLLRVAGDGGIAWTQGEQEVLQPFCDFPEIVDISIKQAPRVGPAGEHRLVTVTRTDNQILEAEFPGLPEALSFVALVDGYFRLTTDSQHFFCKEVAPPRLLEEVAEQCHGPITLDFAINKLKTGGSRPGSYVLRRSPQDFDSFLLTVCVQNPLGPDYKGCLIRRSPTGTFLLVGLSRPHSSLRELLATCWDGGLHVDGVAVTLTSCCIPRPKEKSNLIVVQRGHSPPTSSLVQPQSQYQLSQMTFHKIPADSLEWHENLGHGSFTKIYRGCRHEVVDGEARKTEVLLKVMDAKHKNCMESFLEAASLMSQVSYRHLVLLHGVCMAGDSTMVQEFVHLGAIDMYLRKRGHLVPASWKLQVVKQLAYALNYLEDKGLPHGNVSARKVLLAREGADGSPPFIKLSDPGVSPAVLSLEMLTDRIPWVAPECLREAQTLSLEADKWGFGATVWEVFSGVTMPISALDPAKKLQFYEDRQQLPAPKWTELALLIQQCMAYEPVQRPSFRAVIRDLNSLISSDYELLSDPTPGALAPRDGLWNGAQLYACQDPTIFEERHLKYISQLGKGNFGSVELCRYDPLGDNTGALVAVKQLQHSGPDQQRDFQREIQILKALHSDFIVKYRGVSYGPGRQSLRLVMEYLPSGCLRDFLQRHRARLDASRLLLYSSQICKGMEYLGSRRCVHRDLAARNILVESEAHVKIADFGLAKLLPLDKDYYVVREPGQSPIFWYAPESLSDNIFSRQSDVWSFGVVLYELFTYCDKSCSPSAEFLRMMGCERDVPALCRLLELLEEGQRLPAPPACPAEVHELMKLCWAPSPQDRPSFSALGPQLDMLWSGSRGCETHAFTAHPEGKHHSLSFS
Description: as §1
as §2, with “μL, JAK3” for “μL, SRC (1-530)”, “500 μM” for “500 mM”
as §3, §4

Sequence	Src (residues 1-530) Kinase Activity (%) (+SD %) (Src (residues 1-530); peptide 30 μM)	Src (residues 1-530) Kinase Activity (%) (+SD %) (Src (residues 1-530); peptide 100 μM)	Lck Kinase Activity (%) (+SD %) (Lck; peptide 30 μM)	Lck Kinase Activity (%) (+SD %) (Lck; peptide 100 μM)	JAK3 Kinase Activity (%) (+SD %) (JAK3; peptide 30 μM)	JAK3 Kinase Activity (%) (+SD %) (JAK3; peptide 100 μM)
WLRRIKAWLRRIKALNRQLGVAA	6 (1) %	5 (1) %	130 (1) %	493 (7) %	85 (5) %	102 (2) %
KAFAKLAARLYRKALARQLGVAA		3 (0) %		847 (29) %		91 (8) %
